T1: human IL-12 (human, UniProt P29459 23-219; P29460 23-328)
T1 construct: also called interleukin 12
T1 sequence (looked up) 1: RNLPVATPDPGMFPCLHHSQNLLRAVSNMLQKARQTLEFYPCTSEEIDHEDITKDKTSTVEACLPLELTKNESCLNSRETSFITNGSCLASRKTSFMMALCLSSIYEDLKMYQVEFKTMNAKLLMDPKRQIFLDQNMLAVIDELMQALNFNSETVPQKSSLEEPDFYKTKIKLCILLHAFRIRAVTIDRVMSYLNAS
T1 sequence (looked up) 2: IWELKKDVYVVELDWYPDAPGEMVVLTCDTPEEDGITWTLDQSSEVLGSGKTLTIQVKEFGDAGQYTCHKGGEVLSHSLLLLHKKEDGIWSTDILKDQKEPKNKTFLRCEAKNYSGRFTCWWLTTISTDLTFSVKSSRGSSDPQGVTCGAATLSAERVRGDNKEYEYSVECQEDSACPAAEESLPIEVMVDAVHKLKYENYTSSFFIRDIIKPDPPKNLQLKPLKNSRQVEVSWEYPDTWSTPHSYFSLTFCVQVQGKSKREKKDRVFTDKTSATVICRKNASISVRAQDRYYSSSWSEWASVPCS


Assays:
[1] = biological target: human neonatal Fc receptor (FcRn), non-covalent complex with beta-2-microglobulin (human) (UniProt P55899); assay: FcRn affinity column (Example 2), Fc-region after IdeS cleavage
[2] = biological target: human neonatal Fc receptor (FcRn), non-covalent complex with beta-2-microglobulin (human) (UniProt P55899); assay: FcRn affinity column, run of the Bevacizumab comparison
[3] = biological target: human neonatal Fc receptor (FcRn), non-covalent complex with beta-2-microglobulin (human) (UniProt P55899); assay: SPR, huFcRn immobilised, pH 6.0, steady state affinity normalised to Ustekinumab
human IL-12 [4] = biological target: T1, human IL-12; assay: SPR, IL-12
[5] = biological target: human neonatal Fc receptor (FcRn), non-covalent complex with beta-2-microglobulin (human) (UniProt P55899); assay: FcRn affinity chromatography, pH gradient 5.5-8.8, 140 mM NaCl (Example 2)
human IL-12 [6] = biological target: T1, human IL-12; assay: IL-12 ELISA, concentration calculated from the fit of the Briakinumab calibration curve
[7] = biological target: human neonatal Fc receptor (FcRn), non-covalent complex with beta-2-microglobulin (human) (UniProt P55899); assay: FcRn affinity chromatography, pH gradient (Example 2), pH measured offline
[8] = biological target: human neonatal Fc receptor (FcRn), non-covalent complex with beta-2-microglobulin (human) (UniProt P55899); assay: FcRn affinity column (Example 2)
[9] = biological target: human neonatal Fc receptor (FcRn), non-covalent complex with beta-2-microglobulin (human) (UniProt P55899); assay: FcRn affinity chromatography, pH gradient (Example 2), pH measured offline; FcRn affinity column, Example 2; elution pH at 93.7 min
[10] = biological target: human neonatal Fc receptor (FcRn), non-covalent complex with beta-2-microglobulin (human) (UniProt P55899); assay: SPR, FcRn, buffer pH 7.0
[11] = biological target: human neonatal Fc receptor (FcRn), non-covalent complex with beta-2-microglobulin (human) (UniProt P55899); assay: FcRn affinity chromatography, pH gradient 5.5-8.8, 140 mM NaCl (Example 2); FcRn affinity column, Example 2, 140 mM NaCl, pH gradient; complete antibody
[12] = biological target: human neonatal Fc receptor (FcRn), non-covalent complex with beta-2-microglobulin (human) (UniProt P55899); assay: SPR, FcRn, buffer pH 6.6
[13] = biological target: human neonatal Fc receptor (FcRn), non-covalent complex with beta-2-microglobulin (human) (UniProt P55899); assay: FcRn affinity column, Example 3 method, elution buffer 20 mM Tris/HCl, 400 mM NaCl, pH 8.8; FcRn affinity column, Example 3, high salt 400 mM NaCl
[14] = biological target: human neonatal Fc receptor (FcRn), non-covalent complex with beta-2-microglobulin (human) (UniProt P55899); assay: SPR, FcRn, buffer pH 6.4
[15] = biological target: human neonatal Fc receptor (FcRn), non-covalent complex with beta-2-microglobulin (human) (UniProt P55899); assay: SPR, FcRn, buffer pH 6.8
[16] = biological target: human neonatal Fc receptor (FcRn), non-covalent complex with beta-2-microglobulin (human) (UniProt P55899); assay: SPR, FcRn, buffer pH 6.0
[17] = biological target: human neonatal Fc receptor (FcRn), non-covalent complex with beta-2-microglobulin (human) (UniProt P55899); assay: SPR, huFcRn immobilised, pH 6.0, steady state affinity normalised to Ustekinumab; SPR steady state, pH 6.0, KD relative to Ustekinumab = 1
[18] = biological target: human neonatal Fc receptor (FcRn), non-covalent complex with beta-2-microglobulin (human) (UniProt P55899); assay: SPR, huFcRn immobilised, pH 6.0, steady state affinity normalised to Ustekinumab; SPR steady state, pH 6.0; the reference, set to 1
[19] = biological target: human neonatal Fc receptor (FcRn), non-covalent complex with beta-2-microglobulin (human) (UniProt P55899); assay: FcRn affinity chromatography, pH gradient (Example 2), pH measured offline; FcRn affinity column, Example 2; elution pH at 84.3 min
human IL-12 [20] = biological target: T1, human IL-12; assay: IL-12 ELISA, absorbance against antibody concentration

Row | FcRn column retention time [2] | rel. KD (Ustekinumab = 1) [3] | Kd (human IL-12 [4]) | koff (human IL-12 [4]) | kon (human IL-12 [4]) | FcRn column retention time [5] | window of IL-12 binding relative to Briakinumab (Briakinumab=100%) (human IL-12 [6]) | FcRn column retention time [8] | Molecule | other results
1 |  |  |  |  |  |  |  |  | IdeS-cleaved Fc-region of Ustekinumab | FcRn column retention time [1]: 85.2 min
2 |  |  |  |  |  |  |  |  | IdeS-cleaved Fc-region of Briakinumab | FcRn column retention time [1]: 85.7 min
3 | 84.7 min |  |  |  |  |  |  |  | Bevacizumab-wild-type (antibody) | 
4 |  | 0.3 | 0.25 nM | 0.0003 s⁻¹ | 1.2e+06 M⁻¹ s⁻¹ | 93 min | ≤ 20% |  | mAb 2 (antibody, V domains shown, Fv domain of Briakinumab on the Ustekinumab constant domains (IgG1)) VH: QVQLVESGGGVVQPGRSLRLSCAASGFTFSSYGMHWVRQAPGKGLEWVAFIRYDGSNKYYADSVKGRFTISRDNSKNTLYLQMNSLRAEDTAVYYCKTHGSHDNWGQGTMVTVSS VL: QSVLTQPPSVSGAPGQRVTISCSGSRSNIGSNTVKWYQQLPGTAPKLLIYYNDQRPSGVPDRFSGSKSGTSASLAITGLQAEDEADYYCQSYDRYTHPALLFGTGTKVTVLG | 
5 |  | 0.4 | 0.07 nM | 9.1e-05 s⁻¹ | 1.2e+06 M⁻¹ s⁻¹ | 90.1 min |  | 90.1 min | mAb 8 (antibody, IgG1, V domains shown, Briakinumab variant (IgG1) with five positively charged heavy chain residues mutated; also called Briakinumab with HC mutations R16A, R19A, K57A, K64A, R83A) VH: QVQLVESGGGVVQPGASLALSCAASGFTFSSYGMHWVRQAPGKGLEWVAFIRYDGSNAYYADSVAGRFTISRDNSKNTLYLQMNSLAAEDTAVYYCKTHGSHDNWGQGTMVTVSS VL: QSVLTQPPSVSGAPGQRVTISCSGSRSNIGSNTVKWYQQLPGTAPKLLIYYNDQRPSGVPDRFSGSKSGTSASLAITGLQAEDEADYYCQSYDRYTHPALLFGTGTKVTVL | FcRn column elution pH [7]: 7.7 pH
6 | 91.6 min | 0.2 | 0.07 nM | 6e-05 s⁻¹ | 800000 M⁻¹ s⁻¹ |  | ≤ 20% | 93.7 min | Briakinumab (antibody, V domains shown, Fully human IgG1; also called ABT 874; J 695) VH: QVQLVESGGGVVQPGRSLRLSCAASGFTFSSYGMHWVRQAPGKGLEWVAFIRYDGSNKYYADSVKGRFTISRDNSKNTLYLQMNSLRAEDTAVYYCKTHGSHDNWGQGTMVTVSS VL: QSVLTQPPSVSGAPGQRVTISCSGSRSNIGSNTVKWYQQLPGTAPKLLIYYNDQRPSGVPDRFSGSKSGTSASLAITGLQAEDEADYYCQSYDRYTHPALLFGTGTKVTVLG | FcRn column elution pH [9]: 7.9 pH; Kd [10]: 4200 nM; FcRn column retention time [11]: 93.7 min; Kd [12]: 360 nM; FcRn column retention time [13]: 83.1 min; Kd [14]: 100 nM; Kd [15]: 600 nM; Kd [16]: 90 nM; rel. KD (Ustekinumab = 1) [17]: 0.2
7 |  | 0.4 | 0.01 nM | 0.00013 s⁻¹ | 8.8e+06 M⁻¹ s⁻¹ | 86.2 min |  | 86.2 min | mAb 9 (antibody, IgG1, V domains shown, Briakinumab variant (IgG1) with three positively charged residues of the light chain CDRs mutated to alanine; also called Briakinumab with LC mutations R27A, R55A, R94A) VH: QVQLVESGGGVVQPGRSLRLSCAASGFTFSSYGMHWVRQAPGKGLEWVAFIRYDGSNKYYADSVKGRFTISRDNSKNTLYLQMNSLRAEDTAVYYCKTHGSHDNWGQGTMVTVSS VL: QSVLTQPPSVSGAPGQRVTISCSGSASNIGSNTVKWYQQLPGTAPKLLIYYNDQAPSGVPDRFSGSKSGTSASLAITGLQAEDEADYYCQSYDAYTHPALLFGTGTKVTVL | FcRn column elution pH [7]: 7.5 pH
8 | 83.6 min | 1 | 0.2 nM | 0.00018 s⁻¹ | 900000 M⁻¹ s⁻¹ |  | ≤ 20% | 84.3 min | Ustekinumab (antibody, V domains shown, Fully human IgG1; also called CNTO 1275; Stelara) VH: EVQLVQSGAEVKKPGESLKISCKGSGYSFTTYWLGWVRQMPGKGLDWIGIMSPVDSDIRYSPSFQGQVTMSVDKSITTAYLQWNSLKASDTAMYYCARRRPGQGYFDFWGQGTLVTVSS VL: DIQMTQSPSSLSASVGDRVTITCRASQGISSWLAWYQQKPEKAPKSLIYAASSLQSGVPSRFSGSGSGTDFTLTISSLQPEDFATYYCQQYNIYPYTFGQGTKLEIK | FcRn column retention time [11]: 84.3 min; Kd [12]: 3100 nM; FcRn column retention time [13]: 80.4 min; rel. KD (Ustekinumab = 1) [18]: 1; FcRn column elution pH [19]: 7.4 pH; Kd [14]: 1000 nM; Kd [16]: 390 nM
9 |  | 1 | 0.24 nM | 0.00041 s⁻¹ | 1.7e+06 M⁻¹ s⁻¹ | 84.3 min |  |  | mAb 1 (antibody, V domains shown, Fv domain of Ustekinumab on the constant parts of Briakinumab (IgG1)) VH: EVQLVQSGAEVKKPGESLKISCKGSGYSFTTYWLGWVRQMPGKGLDWIGIMSPVDSDIRYSPSFQGQVTMSVDKSITTAYLQWNSLKASDTAMYYCARRRPGQGYFDFWGQGTLVTVSS VL: DIQMTQSPSSLSASVGDRVTITCRASQGISSWLAWYQQKPEKAPKSLIYAASSLQSGVPSRFSGSGSGTDFTLTISSLQPEDFATYYCQQYNIYPYTFGQGTKLEIK | 
10 |  | 0.2 |  |  |  | 92.4 min |  |  | mAb 3 (antibody, V domains shown, Heavy chains of Ustekinumab and light chains of Briakinumab (whole chains)) VH: EVQLVQSGAEVKKPGESLKISCKGSGYSFTTYWLGWVRQMPGKGLDWIGIMSPVDSDIRYSPSFQGQVTMSVDKSITTAYLQWNSLKASDTAMYYCARRRPGQGYFDFWGQGTLVTVSS VL: QSVLTQPPSVSGAPGQRVTISCSGSRSNIGSNTVKWYQQLPGTAPKLLIYYNDQRPSGVPDRFSGSKSGTSASLAITGLQAEDEADYYCQSYDRYTHPALLFGTGTKVTVLG | binding result (human IL-12 [20]): no binding (tested: 12 ng/mL)

Source: patent publication US20170227547A1 (Hoffmann-La Roche, published 2017)
